{
  "source": "patent US20090068110A1",
  "about": "“ANTIBODIES TO INSULIN-LIKE GROWTH FACTOR RECEPTOR” (Genentech, Inc., priority 2006, published 2009)",
  "molecules": {"B1": {"name": "YW95.6 (Fab, V domains shown)", "VH": "EVQLVESGGGLVQPGGSLRLSCAASGFTFSSYAMSWVRQAPGKGLEWVSRISPSGGSTYYADSVKGRFTISADTSKNTAYLQMNSLRAEDTAVYYCAREEYYYWGAMDVWGQGTLVTVSS", "VL": "DIQMTQSPSSLSASVGDRVTITCRASQSISSYLAWYQQKPGKAPKLLIYGASSRASGVPSRFSGSGSGTDFTLTISSLQPEDFATYYCQQYYSSPLTFGQGTKVEIK"}, "B2": {"name": "chimeric 10H5-IgG (antibody, V domains shown)", "VH": "QVQLQQPGAELVKPGASVTLSCKASGYTFTRFWIHWVKQRPGQGLEWIGEINPSNGRTNYNENFKNKATLTVDTSSSTAYMQLSSLTSEVSVVYYCARGGRLDQWGQGTT", "VL": "DIVMTQSQKFMSTSLGDRVSVTCKASQNVGSNVAWYQQKPGQSPEALIYSASYRYSGVPDRFTGSGSGTDFTLTISNVQSEDLAEYFCHQYNNYPYTFGGGTKVEIKR", "notes": "also called human chimeric 10H5"}},
  "key": {"[1]": {"test_system": "Colo205-e215 xenograft tumors", "test": "Colo205-e215 xenograft, combination with 5-FU", "type": "in vivo, athymic nude mice", "details": "h10H5.vX weekly IP; 5-FU 100 mg/kg weekly for first three weeks", "source_text": "(§1) Female nude (nu/nu) and C.B-17 SCID beige mice were obtained from Charles Rivers Laboratories, Inc. (Hollister, Calif.). Animals were about six to eight weeks old and weighed about 25 grams each. Mice were acclimated to study conditions for at least three days before tumor-cell inoculations. The animals were housed in standard rodent micro-isolator cages. Only animals that appeared to be healthy and that were free of obvious abnormalities were used for the study. Each mouse was given a subcutaneous injection of SK-N-AS cells (10 million), SW527 cells (5 million), Colo205 cells (5 million), or A549 cells (5 million) into the dorsal right flank in a volume of 0.2 mL. Data collected from each experimental group were expressed as mean tumor volume±the standard error of the mean (SEM). Tumors were monitored until they reached a mean volume of 130-260 mm3. […] Tumors were measured twice weekly throughout the experiment starting on the first day of treatment. Tumor volumes were measured in two dimensions (length and width) using ULTRA CAL-IV™ calipers (Model 54-10-111, Fred V. Fowler Company, Inc.; Newton, Mass.), and calculated using the formula of: […]\n(§2) Tumor-inhibition and body-weight graphs were plotted using […]™ 3.6 software (Synergy Software; Reading, Pa.). […]"}, "[2]": {"biological_target": "T1, IGF-1R α- and β-subunit in SK-N-AS cells (Homo sapiens, UniProt P08069)", "T1 construct": "h10H5-induced IGF-1R downregulation, SK-N-AS cells were pretreated; endogenous in cells; host or cells: SK-N-AS", "test": "h10H5-induced IGF-1R down-regulation with proteasome or lysosomal protease inhibitors", "type": "cell-based", "details": "one hour pretreatment; 30 μM bortezomib or 5 μM pepstatin A and 10 μg/ml leupeptin", "procedure": "Both proteasome and lysosome pathways have been implicated in ligand-mediated IGF-1R degradation. To examine whether these pathways contribute to h10H5-induced IGF-1R downregulation, SK-N-AS cells were pretreated with either a combination of 5 μM of pepstatin A and 10 μg/ml of leupeptin or 30 μM of VELCADE® bortezomib for one hour, and subsequently exposed to h10H5 treatment for 1 to 8 hours in the presence of protease or protesome inhibitors. Cell lysates were analyzed for IGF-1R α-subunit and β-subunit by Western blotting. β-actin was used as a loading control. Because the extracellular (ECD) and intracellular (ICD) domains are exposed to different cellular environments during the internalization and trafficking processes, antibodies that specifically react to the α-subunit that is a major part of ECD or the C-terminus of the β-subunit, and therefore a part of ICD, were used for Western blot analysis."}, "[3]": {"biological_target": "human IGF-1R-ECD (secreted recombinant extracellular domain, amino acids 1-902, tagged with 10 or 12 histidine residues at the carboxyl terminus) (human) (UniProt P08069)", "test": "competition ELISA: antibody pre-incubated on plate-coated human IGF-1R-ECD, then biotinylated IGF-I (blocked ligand), streptavidin-HRP, A450"}, "[4]": {"biological_target": "human IGF-1R-ECD (secreted recombinant extracellular domain, amino acids 1-902, tagged with 10 or 12 histidine residues at the carboxyl terminus) (human) (UniProt P08069)", "test": "solid-phase binding assay: serially diluted antibody on plate-coated human IGF-1R-ECD, then biotinylated IGF-I (blocked ligand), streptavidin-HRP, A450; n=3"}, "[5]": {"biological_target": "human IGF-1R-ECD (secreted recombinant extracellular domain, amino acids 1-902, tagged with 10 or 12 histidine residues at the carboxyl terminus) (human) (UniProt P08069)", "test": "solid-phase binding assay: serially diluted antibody on plate-coated human IGF-1R-ECD, then biotinylated IGF-II (blocked ligand), streptavidin-HRP, A450; n=3"}, "[6]": {"details": "CHF patients, enalapril in addition to conventional therapy; cited from earlier work"}, "[7]": {"test_system": "A549 tumors", "test": "A549 lung-cancer xenograft model", "type": "in vivo, athymic nude mice", "details": "h10H5.vX 5 mg/kg IP two times per week; vinorelbine 9 mg/kg weekly for first three weeks", "source_text": "as §1, §2"}, "[8]": {"test_system": "SW527 xenograft tumors", "test": "SW527 breast-cancer xenograft model", "type": "in vivo, SCID beige mice", "source_text": "as §1, §2\nTumor incidence was determined by the number of measurable tumors in each group. […]"}, "[9]": {"biological_target": "human IGF-1R-ECD (secreted recombinant extracellular domain, amino acids 1-902, tagged with 10 or 12 histidine residues at the carboxyl terminus) (human) (UniProt P08069)", "test": "BIACORE surface plasmon resonance: IGF-1R immobilized on CM5 chip (about 500 RU), Fab injected 500-3.1 nM, 25 C, 1:1 Langmuir model"}, "[10]": {"biological_target": "murine IGF-1R-ECD (murine) (UniProt Q60751)", "test": "BIACORE surface plasmon resonance: IGF-1R immobilized on CM5 chip (about 500 RU), Fab injected 500-3.1 nM, 25 C, 1:1 Langmuir model"}, "[11]": {"biological_target": "human IGF-1R-ECD (secreted recombinant extracellular domain, amino acids 1-902, tagged with 10 or 12 histidine residues at the carboxyl terminus) (human) (UniProt P08069)", "test": "BIACORE surface plasmon resonance: IGF-1R immobilized on CM5 chip (about 500 RU), IgG injected 250-0.78 nM, 25 C, 1:1 Langmuir model (apparent affinity)"}, "[12]": {"biological_target": "cynomolgus-monkey IGF-1R (cynomolgus monkey, UniProt G7P9I7 31-908)", "sequence (G7P9I7 entry or part of it)": "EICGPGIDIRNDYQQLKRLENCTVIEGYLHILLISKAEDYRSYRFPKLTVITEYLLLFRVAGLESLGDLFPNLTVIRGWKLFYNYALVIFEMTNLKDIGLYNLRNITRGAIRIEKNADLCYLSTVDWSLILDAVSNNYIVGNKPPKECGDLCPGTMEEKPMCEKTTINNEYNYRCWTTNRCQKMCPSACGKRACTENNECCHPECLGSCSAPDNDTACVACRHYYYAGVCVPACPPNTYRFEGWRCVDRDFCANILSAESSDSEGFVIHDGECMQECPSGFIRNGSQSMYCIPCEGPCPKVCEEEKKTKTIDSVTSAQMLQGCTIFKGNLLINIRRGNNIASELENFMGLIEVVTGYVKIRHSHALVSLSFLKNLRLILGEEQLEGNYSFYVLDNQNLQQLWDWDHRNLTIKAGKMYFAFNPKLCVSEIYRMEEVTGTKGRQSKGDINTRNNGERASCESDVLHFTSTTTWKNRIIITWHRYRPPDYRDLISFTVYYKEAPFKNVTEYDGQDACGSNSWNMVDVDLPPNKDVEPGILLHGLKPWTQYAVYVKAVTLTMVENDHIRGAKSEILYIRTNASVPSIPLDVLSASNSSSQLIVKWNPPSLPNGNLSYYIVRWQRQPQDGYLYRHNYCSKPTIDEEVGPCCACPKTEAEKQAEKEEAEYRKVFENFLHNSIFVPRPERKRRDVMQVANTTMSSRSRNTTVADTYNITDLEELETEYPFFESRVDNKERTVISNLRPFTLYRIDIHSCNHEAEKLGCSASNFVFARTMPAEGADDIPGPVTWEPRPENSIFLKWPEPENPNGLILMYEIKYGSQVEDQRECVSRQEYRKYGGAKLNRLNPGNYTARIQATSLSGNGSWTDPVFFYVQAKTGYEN", "test": "BIACORE surface plasmon resonance: IGF-1R immobilized on CM5 chip (about 500 RU), IgG injected 250-0.78 nM, 25 C, 1:1 Langmuir model (apparent affinity)"}},
  "data": [
    {"molecule": "O=c1[nH]cc(F)c(=O)[nH]1", "note": "[5-FU, 5-fluorouracil]", "values": [
      {"measurement": "% TGI at day 27", "setting": "[1]", "value": 53, "unit": "%"}
    ]},
    {"molecule": "CC(C)C[C@H](NC(=O)[C@H](Cc1ccccc1)NC(=O)c1cnccn1)B(O)O", "note": "[VELCADE® bortezomib, bortezomib]", "values": [
      {"measurement": "effect on h10H5-induced IGF-1R subunit downregulation", "setting": "[2]", "value": "more effective in preventing β-subunit downregulation"}
    ]},
    {"molecule": "IR3, commercial anti-IGF-1R antibody", "values": [
      {"measurement": "IC50 (read off the curve)", "setting": "[3]", "value": 5, "unit": "nM"},
      {"measurement": "IC50 (read off the curve)", "setting": "[4]", "value": 8, "unit": "µg/mL"},
      {"measurement": "IC50 (read off the curve)", "setting": "[5]", "value": 5, "unit": "µg/mL"}
    ]},
    {"molecule": "CCOC(=O)[C@H](CCc1ccccc1)N[C@@H](C)C(=O)N1CCC[C@H]1C(=O)O", "note": "[enalapril]", "values": [
      {"measurement": "reduction of the risk of developing cardiac cachexia", "setting": "[6]", "value": 19, "unit": "%"}
    ]},
    {"molecule": "CCC1=C[C@@H]2CN(C1)Cc1c([nH]c3ccccc13)[C@@](C(=O)OC)(c1cc3c(cc1OC)N(C)[C@H]1[C@@](O)(C(=O)OC)[C@H](OC(C)=O)[C@]4(CC)C=CCN5CC[C@]31[C@@H]54)C2", "note": "[vinorelbine]", "values": [
      {"measurement": "inhibition of tumor growth (TGI) at day 21", "setting": "[7]", "value": 45, "unit": "%"}
    ]},
    {"molecule": "CC(=O)O[C@@]12CO[C@@H]1C[C@H](O)[C@@]1(C)C(=O)[C@H](O)C3=C(C)[C@@H](OC(=O)[C@H](O)[C@@H](NC(=O)OC(C)(C)C)c4ccccc4)C[C@@](O)([C@@H](OC(=O)c4ccccc4)[C@H]21)C3(C)C", "note": "[docetaxel]", "values": [
      {"measurement": "TGI on Day 14", "setting": "[8]; Example 5, h10H5 5 mg/kg weekly IP, docetaxel 12.5 mg/kg IV Days 0, 4, 8, B20-4.1 10 mg/kg weekly IP", "value": 54, "unit": "%"},
      {"measurement": "body weight losses leading to euthanasia", "setting": "[8]; single-agent docetaxel 12.5 mg/kg, two mice Day 8, two mice Day 12", "value": "> 20", "unit": "%"}
    ]},
    {"molecule": "B1", "values": [
      {"measurement": "Kd", "setting": "[9]", "value": 7.3, "unit": "nM"},
      {"measurement": "Kd", "setting": "[10]", "value": 8.6, "unit": "nM"}
    ]},
    {"molecule": "B2", "values": [
      {"measurement": "Kd", "setting": "[11]", "value": 0.1, "unit": "nM"},
      {"measurement": "Kd", "setting": "[12]", "value": 0.13, "unit": "nM"}
    ]}
  ]
}
